This data set in a line: soluble fraction after stress (log2 fold change); higher = more stays soluble; pooled small domains, quantitative proteomics. The conditions noted are these: stress: pH 4. The method, boiled down:
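After pH 4 stress, pooled custom libraries of small protein domains were quantified with high-throughput quantitative proteomics. Aggregation propensity is taken from the fold change in each domain's soluble amount following the acid stress. The scale is log2, where higher values mean more stayed soluble.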
For “HMYDESVFTGEYHYYYEKLSDDDKLIYRQIYAMMQKRMDGISLNTTDTDNVSRIQQFVLLDNPQF”, the “soluble fraction (log2)” value was -2.43.

Consider “HMYDKKVFRLLFILNQLDSRKKVSTGELAKEFNVSPRTVQRDIVLLNTTGFPIISLEKGYHSFMEGFSLK”, for which the “soluble fraction (log2)” value was -0.7.

As to “HMYDPVNEIGRVLKKIRQERSLTLDNVAEITGVSKTMLGQIERGVSVPTISVLWKIAKGLQVSLSTLLNE”, the “soluble fraction (log2)” value worked out at 0.36.

As for “HMYEGLPVTLIIDGRVIEANLAKANRDMAWLERELANSGVRSHHDVFFATLDSRGQLYYQVKN”, the “soluble fraction (log2)” value was -1.35.

Take “HMYELDIYPNPAIDKINVLLPSSTTLPVKVEIYDIMGKKVNSLLTTKKAFTIETDQFEKGIYFVKA”: the “soluble fraction (log2)” value is 0.187.

Turning to “HMYELREGDVVSVRILSQTGQNSYIASFAGGRFSVTSERAFAPGTVFSASVSLKDGTLVLSPL”, the “soluble fraction (log2)” value amounted to 0.0111.

In the case of “HMYFEDEELDRFVGTPAGAYTEEDVEEFRDVLLSLDIEEVPSWVRSLQLRGIDFPETLRPELYLL”, the “soluble fraction (log2)” value was -2.72.

Take “HMYGQEVKVLGLFGDRAFIKVDEKSAVIRIGQSHQNVQLKSISNQKAILLVDNKDIALGLGDSYQSA”: the “soluble fraction (log2)” value is -0.397.

In the case of “HMYGVAEFDEKGNVLSIEEKPVQPKSNYAVVGLYFYPNKVVGVASGIKPSARGELEITTVNQTFLRDEELK”, the “soluble fraction (log2)” value is 0.0152.

“HMYHNKFADLAGFIAFNEKNEEIFTFGKYKGQNVKEVFQRDIGYYGWLQNADFPLYTKKVFTAIQLRSR”: the “soluble fraction (log2)” value is -1.07.

For the sequence “HMYHPGFEALREVARQGSFIKAARALGISGPAVSKQIKSLEARLNLVLLHRTTRAVTLTEAGQRLTEILD”, the “soluble fraction (log2)” value was -0.437.

In the case of “HMYIDNVTIYDVGFNERIVHALERAGVKNLYDLSQMNFYQLQRIRNLGASSLEKVINRIHSYGILLKNES”, the “soluble fraction (log2)” value was -0.761.

Take “HMYIEKTAYINDTAVNVRKSATTDSDVIKVLALNTEITIIGEENDWYKVKSGNDIGYIAKRLVSDQKKE”: the “soluble fraction (log2)” value is -0.109.

In the case of “HMYIKYETVLQNITERIAALRKNGTLVLDGERTLAAEFDASRGTIRKAMRQLEENGTILREGYVTRILPE”, the “soluble fraction (log2)” value was -0.299.

For “HMYIVVPDLSKKDINEVANILAAQSLRFQVIDSANFRSDFPKNAVISQKPLAGSEVKVNKKIYLQLNPS”, the “soluble fraction (log2)” value was -0.608.

In the case of “HMYLEARVKSTTPILSKPNELGKSLGKLYTNDFVALVSLHKNGLDSYYRTANGGYINAADVVIDRDV”, the “soluble fraction (log2)” value was -0.133.

Consider “HMYLPLREVVFNALRTAIIHGEFKPGERLMEMHLAKSLGVSRTPVREAMRMLELEGLVVMIPKKGAEVAR”, for which the “soluble fraction (log2)” value is -0.408.

For the sequence “HMYMKMNDRIRSRRKELKMTQSVLAKLVGVNRVTITGWESGDYKPGGENLQALAAALEKTPQWLLDGKD”, the “soluble fraction (log2)” value is not below 0.43.

“HMYMTTADADMWKYVNTGRYNNDIQLMEEYKNRSMDSFEVITPEQQRKYNKAAMNLNSYYAWADPSYKPNP”: the “soluble fraction (log2)” value was -0.888.

On to “HMYMWQVEDLLRANELDIENIKKTIIDHYQLDDAQKSELTRWYEDLINMMRLEGVTKEGHLQINK”, for which the “soluble fraction (log2)” value was -1.75.

In the case of “HMYNSYALTARELELVNYVLKGNSRREMAEDSGLKENTVASYMKRLYRKIKVHSRKELKELFM”, the “soluble fraction (log2)” value is -0.422.

Regarding “HMYPDNEQTLSKLAFEFFKKRNIPISQSNINQIVTKSLGDRENLYNELLKIENFSTSGKKLTDNVIKKLIN”, the “soluble fraction (log2)” value amounted to 0.176.

Regarding “HMYPFSEETLKEKIREYLKTNRSINRRVLEREFYIRKQTALNWLNRLVDSGFLIKEGVRNSPVYFLAE”, the “soluble fraction (log2)” value came to 0.26.

Turning to “HMYPMQNYSTIIGVIELRQQSVGYATTQKRYGIGSSTVTLIMKRFKELGLTLEELRAMPPKAVEVAFYPPE”, the “soluble fraction (log2)” value was 0.246.

Regarding “HMYPNEFPRKVMSVFESSGLEMFRTIEMLLAIPEYETPLPYGSGVSRSDIFVLAKSAGNLVSITV”, the “soluble fraction (log2)” value is -0.314.

In the case of “HMYQFFVDPGQIQGKRVTITGSDVNHIKNVLRMRIGEEIAVSNGKDGLEYRFGIDEILEDEVIGTLRFVKE”, the “soluble fraction (log2)” value was -1.87.

On to “HMYRIGELAKLADVTPDTIRYYEKQQMMDHDVRTEGGFRLYSDNDLQRLKFIRYARQLGFTLEAIRELLSI”, for which the “soluble fraction (log2)” value was -0.51.

On to “HMYRWSEEIFEKLRSDIMAALDLSREQNDEEIYRFIETEVEEYSQNNLLTLKEREQLEHLLFNSL”, for which the “soluble fraction (log2)” value is -1.12.

Consider “HMYSKVSFTVSVGMTSERVSASLKALGIIDDSAKFNRYLVSNGYSTRIKVGTVELQAGQSYAEIASKLV”, for which the “soluble fraction (log2)” value was found to be 0.151.

With “HMYSLSELERIKNFLTGYMSDYSIMMLDANEITNQVDISLKDYSDDNIESIKAAVLSHGGKTDYLNFIDDS”, the “soluble fraction (log2)” value is -1.01.

As for “HMYSQEEKRYMEIMEIKPQELSAENLKKQYKKLVKKYHPDLHQDDKQAAEEKFKQLTNAYQVLMRRF”, the “soluble fraction (log2)” value is -0.0526.

As to “HMYSSASKEEIDQLMKRLILNLDAKGYFWPQDKEKSLKLYLHNLFSKLPLNSSDIRFLHGLIRALSEE”, the “soluble fraction (log2)” value was -0.693.

As to “HMYSSIIGIAFTRAENKPAAPTGGSYSNPHPVDGNWKAAPYDGDGNLWYSIRHFNENVDIQDREWSDPTLG”, the “soluble fraction (log2)” value was determined as 0.0834.

Take “HMYSYSGSVINTYKVPVSVVLKDANGSAIASWDLPVDQSLGISAKDIATSSGTIEITGDGVNETKTVTFTK”: the “soluble fraction (log2)” value is -0.159.

As for “HMYTGSEGMAGLEGRAVTEVGPEAGTVLVKGEYWQARSDEPIATDRKIRVIRLEGLRLRVAEIHPEG”, the “soluble fraction (log2)” value worked out at 0.169.

Regarding “HMYTPDYLSDLMVRMAHHSTAIEGNTLTQGETKSVLVDGYIPRAMDMRELNEVLNYKAFMTFLVE”, the “soluble fraction (log2)” value is -0.35.

“HMYTTHTQSELNEAARFNGRATYQKGIYYNESKKEHFKVVNGKYQALPNVKQVNGDSWIDKTGITHKG”: the “soluble fraction (log2)” value came out at 0.202.

Consider “HMYTVQQLARLAGITPRTLRHYDAIGLLKPTRVGENGYRYYGSEALLRLQSILLYRELDMPLEDIRRVLDS”, for which the “soluble fraction (log2)” value is -1.23.

“HMYVPEVPVPDLLGRSEEEAKNLIEDLGLVFKVSKREYSKEYDEGHVMEQSVDEGAKVKENYPVEVVISR”: the “soluble fraction (log2)” value is -0.325.

With “HMYYDDEELDDYRGKASDAYTAAEVEQFEEVLTTMRPEEVHGWLRSLQLRGVALPDALKDEAYMIVSEQAE”, the “soluble fraction (log2)” value is -0.727.

For “HMYYIITNGKYWVIENPIRPGEYMESTKSSNAKQFTFKQAKNLLNARSKKLGWIRNGYSMVGED”, the “soluble fraction (log2)” value was determined as 0.427.

(Values after the domain aggregation screens of Martell et al. (2025).)
